Laboratory results: PMC2912378 (PLoS ONE, 2010)

Target: T1, RelA (p65) (endogenous, BV-2 microglial cells) (mouse (endogenous in BV-2), UniProt Q04207 1-549)
T1 construct: NF-kappa B family member RelA (p65), endogenous in the murine microglial cell line BV-2; source: endogenous, BV-2 whole cell lysate
Test: co-IP; whole cell lysates of BV-2 cells, untreated or treated with Tat (100nM) for 4h or 8h; immunoprecipitation with a RelA-specific antibody and Protein A/G+ agarose beads, 4°C, washed with ELB lysis buffer; immunoblot with RelB-specific antibody; densitometry normalised to precipitated RelA
Details: partners not purified

T1 sequence (Q04207 whole entry): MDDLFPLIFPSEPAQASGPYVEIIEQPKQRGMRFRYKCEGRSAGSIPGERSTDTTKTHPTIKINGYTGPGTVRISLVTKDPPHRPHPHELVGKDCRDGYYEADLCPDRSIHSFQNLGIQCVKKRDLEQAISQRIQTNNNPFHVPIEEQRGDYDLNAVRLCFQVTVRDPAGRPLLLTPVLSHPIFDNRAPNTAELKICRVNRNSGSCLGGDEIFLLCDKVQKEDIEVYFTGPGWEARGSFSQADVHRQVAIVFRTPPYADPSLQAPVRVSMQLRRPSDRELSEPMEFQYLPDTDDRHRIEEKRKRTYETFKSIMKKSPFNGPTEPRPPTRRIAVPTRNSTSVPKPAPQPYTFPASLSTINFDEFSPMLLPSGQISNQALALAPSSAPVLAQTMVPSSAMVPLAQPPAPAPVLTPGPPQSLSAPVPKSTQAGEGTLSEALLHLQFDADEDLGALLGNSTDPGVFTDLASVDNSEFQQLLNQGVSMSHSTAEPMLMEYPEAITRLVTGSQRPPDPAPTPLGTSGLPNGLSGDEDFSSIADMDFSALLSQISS

B1: RelB (endogenous, BV-2 microglial cells) (natural protein, mouse (endogenous in BV-2), UniProt Q04863 1-558, looked up)
chain: MPSRRAARESAPELGALGSSDLSSLSLTVSRTTDELEIIDEYIKENGFGLDGTQLSEMPRLVPRGPASLSSVTLGPAAPPPPATPSWSCTLGRLVSPGPCPRPYLVITEQPKQRGMRFRYECEGRSAGSILGESSTEASKTLPAIELRDCGGLREVEVTACLVWKDWPHRVHPHSLVGKDCTDGVCRVRLRPHVSPRHSFNNLGIQCVRKKEIEAAIERKIQLGIDPYNAGSLKNHQEVDMNVVRICFQASYRDQQGHLHRMDPILSEPVYDKKSTNTSELRICRINKESGPCTGGEELYLLCDKVQKEDISVVFSTASWEGRADFSQADVHRQIAIVFKTPPYEDLEISEPVTVNVFLQRLTDGVCSEPLPFTYLPRDHDSYGVDKKRKRGLPDVLGELSSSDPHGIESKRRKKKPVFLDHFLPGHSSGLFLPPSALQPADSDFFPASISLPGLEPPGGPDLLDDGFAYDPSAPTLFTMLDLLPPAPPLASAVVGSGGAGATVVESSGPEPLSLDSFAAPGPGDVGTASLVGSNMFPNQYREAAFGGGLLSPGPEAT
notes: NF-kappa B family member RelB, endogenous in the murine microglial cell line BV-2; source: endogenous, BV-2 whole cell lysate
- fold increase of co-precipitated RelB (normalised to precipitated RelA) with Tat against untreated cells: 4 fold
